US20180171027A1 (Celldex Therapeutics, Inc., priority 2015, published 2018)
Values belong to the molecule of their own block, whether it stands above or below them.

Key:
[1] = molecular target: T1, ErbB3 (Homo sapiens, UniProt P21860)
[2] = molecular target: T1, ErbB3; experiment: cell-based or functional assay
[3] = molecular target: T1, ErbB3; experiment: ErbB phosphorylation (Theranostics Health platform): ErbB3 activation (pErbB3); format: cell-based; set-up: endogenous in cells; host or cells: SCCHN cell lines (Cal27, FaDu, UNC7, SCC61 and others); settings: Cal27 cells, similar results in FaDu
Experimental: ErbB phosphorylation was measured using the Theranostics Health platform.

[4] = molecular target: T1, ErbB3; experiment: cell-based or functional assay; remark: listed apart in the source
[5] = molecular target: T1, ErbB3; experiment: ErbB3 phosphorylation ELISA, titration of purified NRG proteins on T47D cells; format: cell-based; set-up: endogenous in cells
Experimental: Genes encoding the full extracellular domains of each NRG gene and isoform (NRG1α, NRG1β, NRG2α, and NRG2β) were modified to encode a signal peptide at their 5′ end, in order to induce secretion, and a His-tag at their 3′ end. Constructs were transfected into HEK293 cells and conditioned media was treated with NaCl to a final concentration of 0.5 M. NRG-containing media was purified by NiNTA chromatography and eluted with stepwise increases in imidazole in a phosphate buffer containing 0.5 M NaCl. NRG-containing fractions were pooled and further purified by size-exclusion chromatography with a mobile phase consisting of a phosphate-based buffer with 0.5 M NaCl. Purified NRG proteins were titrated on T47D breast cancer cells (which naturally express all ErbB receptors) for 10 minutes at 37° C. ErbB3 phosphorylation was measured by ELISA.

activation of ErbB3 ([3]; presence of NRG): blocked activation
Molecule: pertuzumab: anti-ErbB2 monoclonal antibody [reference compound]
inhibiting or blocking EGF-stimulated activation of ErbB3 ([3]; presence of EGF): neither pertuzumab nor 2C2-YTE were capable of inhibiting or blocking

EC50 (read off the curve), ErbB3 phosphorylation in T47D cells (ELISA) [panel B] [1]: 7 nM
B2: NRG2β full extracellular domain, His-tagged (ligand, UniProt O14511 112-405, looked up, not shown: small tags and cut ends)
chain: CYSPSLKSVQDQAYKAPVVVEGKVQGLVPAGGSSSNSTREPPASGRVALVKVLDKWPLRSGGLQREQVISVGSCVPLERNQRYIFFLEPTEQPLVFKTAFAPLDTNGKNLKKEVGKILCTDCATRPKLKKMKSQTGQVGEKQSLKCEAAAGNPQPSYRWFKDGKELNRSRDIRIKYGNGRKNSRLQFNKVKVEDAGEYVCEAENILGKDTVRGRLYVNSVSTTLSSWSGHARKCNETAKSYCVNGGVCYYIEGINQLSCKCPNGFFGQRCLEKLPLRLYMPDPKQKAEELYQKR

potency of ErbB3 activation relative to the other NRG isoforms [5]: approximately 10 fold
B3: NRG1β: purified His-tagged full extracellular domain of neuregulin isoform, recombinantly expressed by HEK293 cells (protein, UniProt Q02297 20-242, looked up)
extracellular domain: SGKKPESAAGSQSPALPPRLKEMKSQESAAGSKLVLRCETSSEYSSLRFKWFKNGNELNRKNKPQNIKIQKKPGKSELRINKASLADSGEYMCKVISKLGNDSASANITIVESNEIITGMPASTEGAYVSSESPIRISVSTEGANTSSSTSTSTTGTSHLVKCAEKEKTFCVNGGECFMVKDLSNPSRYLCKCQPGFTGARCTENVPMKVQNQEKAEELYQKR
modifications: extracellular domain His tag
notes: purified His-tagged full extracellular domain of neuregulin isoform, recombinantly expressed by HEK293 cells

Continued, molecule first:

Molecule: NRG1β full extracellular domain, His-tagged (from UniProt Q02297 20-242) (ligand)
EC50 (read off the curve), ErbB3 phosphorylation in T47D cells (ELISA) [panel B] [1]: 1 nM | potency of ErbB3 phosphorylation relative to the other NRG isoforms, T47D cells [2]: 10 fold

B1: 2C2-YTE anti-HER3 antibody (antibody, human IgG1, V domains shown)
VH: EVQLLESGGGLVQPGGSLRLSCAASGFTFSYYYMQWVRQAPGKGLEWVSYIGSSGGVTNYADSVKGRFTISRDNSKNTLYLQMNSLRAEDTAVYYCARVGLGDAFDIWGQGTMVTVSS
VL: QSVLTQPPSASGTPGQRVTISCSGSLSNIGLNYVSWYQQLPGTAPKLLISRNNQRPSGVPDRFSGSKSGTSASLAISGLRSEDEADYYCAAWDDSPPGEAFGGGTKLTVL
pY-H3 (VeraTag phosphorylated ErbB3), 4213 non-cancerous skin cell line, 2C2-YTE treatment [4]: 0.6 | pY-H3 (VeraTag phosphorylated ErbB3), 4213 non-cancerous skin cell line, control IgG1 treatment (baseline for 2C2-YTE) [4]: 0.5 | pY-H3 (VeraTag phosphorylated ErbB3), CAL27 cells, 2C2-YTE treatment [4]: 0.6 | pY-H3 (VeraTag phosphorylated ErbB3), CAL27 cells, control IgG1 treatment (baseline for 2C2-YTE) [4]: 4.6 | pY-H3 (VeraTag phosphorylated ErbB3), SCC35 cells, 2C2-YTE treatment [4]: 0.4 | pY-H3 (VeraTag phosphorylated ErbB3), SCC35 cells, control IgG1 treatment (baseline for 2C2-YTE) [4]: 1.1 | pY-H3 (VeraTag phosphorylated ErbB3), SCC61 cells, 2C2-YTE treatment [4]: 0.6 | pY-H3 (VeraTag phosphorylated ErbB3), SCC61 cells, control IgG1 treatment (baseline for 2C2-YTE) [4]: 6.1 | pY-H3 (VeraTag phosphorylated ErbB3), UNC7 cells, 2C2-YTE treatment [4]: 0.4 | pY-H3 (VeraTag phosphorylated ErbB3), UNC7 cells, control IgG1 treatment (baseline for 2C2-YTE) [4]: 3.5 | pY-H3 (VeraTag phosphorylated ErbB3), UNC10 cells, control IgG1/2C2-YTE (one value given) [4]: 0 | pY-H3 pharmacodynamic (PD) ratio, 4213 non-cancerous skin cell line [4]: 1 | pY-H3 pharmacodynamic (PD) ratio, CAL27 cells [4]: 7.5 | pY-H3 pharmacodynamic (PD) ratio, SCC35 cells [4]: 2.8 | pY-H3 pharmacodynamic (PD) ratio, SCC61 cells [4]: 10.6 | pY-H3 pharmacodynamic (PD) ratio, UNC7 cells [4]: 8.4 | pY-H3 pharmacodynamic (PD) ratio, UNC10 cells [4]: 0
